Data taken from paper PMC4432619.

How the values were obtained:
[1] = target: FMNL2 1–489 (N-terminal FMNL2 construct including the coiled coil domain) (human) (UniProt Q96PY5); assay: SEC; analytical gel filtration, Superdex S200 (10/300 GL), typically 100 μg of each protein, 20 mM Tris/HCl pH 8.0, 150 mM NaCl, 1 mM DTE (2.5 mM MgCl2 with Rho GTPases), 0.5 ml/min, 293 K
[2] = target: FMNL1NCC (FMNL1 1–458, GBD-FH3-CC) (human) (UniProt O95466); assay: as above
[3] = target: FMNL1N (FMNL1 2–385, GBD–FH3) (human) (UniProt O95466); assay: ITC; GppNHp-loaded GTPase at 500 μM injected from the syringe into 50 μM FMNL in the cell; 20 mM Tris/HCl pH 8, 150 mM NaCl, 5 mM MgCl2, 1 mM DTE, 298 K; MicroCal iTC200
Sequence of FMNL1N (FMNL1 2–385, GBD–FH3) (human) (O95466 2-385): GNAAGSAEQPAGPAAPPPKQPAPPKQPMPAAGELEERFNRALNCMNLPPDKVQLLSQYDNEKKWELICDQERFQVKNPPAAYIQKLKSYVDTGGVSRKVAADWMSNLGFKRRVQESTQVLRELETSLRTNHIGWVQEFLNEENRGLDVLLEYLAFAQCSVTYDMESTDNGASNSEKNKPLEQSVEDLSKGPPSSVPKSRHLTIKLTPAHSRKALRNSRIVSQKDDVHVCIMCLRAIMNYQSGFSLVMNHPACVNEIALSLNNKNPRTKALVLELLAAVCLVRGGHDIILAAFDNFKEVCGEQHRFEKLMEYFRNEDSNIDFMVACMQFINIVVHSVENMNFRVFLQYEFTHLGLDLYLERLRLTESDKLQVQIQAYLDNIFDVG

[4] = target: FMNL1NCC (FMNL1 1–458, GBD-FH3-CC) (human) (UniProt O95466); assay: as above
Target sequence in this assay (O95466 1-458): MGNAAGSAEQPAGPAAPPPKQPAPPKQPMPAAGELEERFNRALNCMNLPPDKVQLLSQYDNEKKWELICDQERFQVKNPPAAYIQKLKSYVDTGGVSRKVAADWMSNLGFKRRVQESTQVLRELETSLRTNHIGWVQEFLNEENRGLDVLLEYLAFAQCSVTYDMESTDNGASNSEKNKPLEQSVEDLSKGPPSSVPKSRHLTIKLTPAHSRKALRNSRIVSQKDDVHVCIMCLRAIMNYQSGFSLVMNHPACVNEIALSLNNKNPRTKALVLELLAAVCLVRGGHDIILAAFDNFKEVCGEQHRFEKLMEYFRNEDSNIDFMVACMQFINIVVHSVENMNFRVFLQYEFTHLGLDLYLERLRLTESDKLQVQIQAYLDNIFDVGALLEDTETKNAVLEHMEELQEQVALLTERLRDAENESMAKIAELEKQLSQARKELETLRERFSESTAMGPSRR

[5] = target: FMNL2N(S171DD) (residues 1–379) (human) (UniProt Q96PY5); assay: as above

Sequence of Cdc42 (1–179) (P60953 1-179): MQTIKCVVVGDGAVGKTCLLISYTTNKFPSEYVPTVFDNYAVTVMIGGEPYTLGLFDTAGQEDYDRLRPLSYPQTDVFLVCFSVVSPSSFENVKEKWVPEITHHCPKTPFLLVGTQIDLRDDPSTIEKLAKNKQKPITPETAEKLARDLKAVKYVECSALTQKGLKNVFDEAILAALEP
Sequence of FMNL1NCC (FMNL1 1–458, GBD-FH3-CC) (O95466 1-458): as the sequence (O95466 1-458) above

## FMNL2 1–489 (N-terminal FMNL2 construct including the coiled coil domain) (from UniProt Q96PY5 1-489) (domain or fragment)
[1]
  stoichiometry N: 2

## FMNL1NCC (FMNL1 1–458, GBD-FH3-CC) (from UniProt O95466 1-458) (domain or fragment)
[2]
  stoichiometry N: 2

## Cdc42 (1–179) (from UniProt P60953 1-179) (domain or fragment)
[3]
  Kd: 6130 nM
  dH: -5.08 kcal/mol
  stoichiometry N: 0.28
[4]
  Kd: 2550 nM
  dH: -5.48 kcal/mol
  stoichiometry N: 0.37
[5]
  Kd: 790 nM
  dH: -4.06 kcal/mol
  stoichiometry N: 1.05
